The values below come from patent US4643988A, “Amphipathic peptides” (Research Corporation, priority 1984, dated 1987).

A short description of this data set: Pore exclusion gradient gel electrophoresis of peptide/lipid complexes. As to conditions: range over complexes, ratio not stated. The data set is classed as physicochemical. How it is done: Pore exclusion electrophoresis was performed on the resulting peptide/lipid complexes (FIG. 7), on 4-25% olyacrylamide gels using non-denaturing conditions for 24 to 36 hours. Gels were fixed and stained in the presence of 4% formaldehyde. DMPC is mixed with a trace of fluorescent marker (NBD). Different ratios of protein:lipid (1:1, 1:2.5, 1:5, 1:7.5) were incubated for 24-36 hours.

As to “Apo A-I: apolipoprotein A-I, major HDL apoprotein component, isolated from human serum”, the Stokes diameter is 80-200 Å.
